Positions count from the first letter of the chain named. Names and notes keep the numbering of the source.
B1: Anti-IL-6 antibody, heavy chain S35H, G66D / light chain WT (antibody, IgG1, V domains shown)
VH: EVQLVESGGGLVQPGGSLRLSCAASGFTFSPFAMHWVRQAPGKGLEWVAKISPGGSWTYYSDTVTDRFTFSLDTSKSTAYLQMNSLRAEDTAVYYCARQLWGYYALDIWGQGTLVTVSS
VL: DIQLTQSPSSLSASVGDRVTITCSASISVSYMYWYQQKPGKAPKLLIYDMSNLASGVPSRFSGSGSGTDFTLTISSLQPEDFATYYCMQWSGYPYTFGQGTKVEIK
notes: IgG1; variable domains only
B2: Anti-IL-6 antibody, heavy chain S35H, G66D, L100V / light chain WT (antibody, IgG1, V domains shown)
VH: B1 VH with L100V
VL: B1 VL
notes: IgG1; variable domains only
B3: Anti-IL-6 antibody, heavy chain S35H, G66D, L100Y / light chain M32L, M50D, N52S, M88Q (antibody, IgG1, V domains shown)
VH: B1 VH with L100Y
VL: B1 VL with M32L, M50D, N52S, M88Q
notes: IgG1; variable domains only; VL is variant III
B4: Anti-IL-6 antibody, heavy chain S35H, G66D, L100Y / light chain WT (antibody, IgG1, V domains shown)
VH: B1 VH with L100Y
VL: B1 VL
notes: IgG1; variable domains only
B5: Anti-IL-6 antibody, heavy chain S35H, G66D, Q99A / light chain M32L, M50D, N52S, M88Q (antibody, IgG1, V domains shown)
VH: B1 VH with Q99A
VL: B1 VL with M32L, M50D, N52S, M88Q
notes: as for B3
B6: Anti-IL-6 antibody, heavy chain G66D / light chain WT (antibody, IgG1, V domains shown)
VH: B1 VH with H35S
VL: B1 VL
notes: IgG1; variable domains only
B7: Anti-IL-6 antibody, heavy chain S35H, G66D, L100R / light chain M32L, M50D, N52S, M88Q (antibody, IgG1, V domains shown)
VH: B1 VH with L100R
VL: B1 VL with M32L, M50D, N52S, M88Q
notes: as for B3
B8: Anti-IL-6 antibody, heavy chain S35H, G66D, L100S / light chain WT (antibody, IgG1, V domains shown)
VH: B1 VH with L100S
VL: B1 VL
notes: IgG1; variable domains only
B9: Anti-IL-6 antibody, heavy chain S35H, G66D, L100W / light chain M32L, M50D, N52S, M88Q (antibody, IgG1, V domains shown)
VH: B1 VH with L100W
VL: B1 VL with M32L, M50D, N52S, M88Q
notes: as for B3
B10: Anti-IL-6 antibody, heavy chain S35H, G66D, L100F / light chain M32L, M50D, N52S, M88Q (antibody, IgG1, V domains shown)
VH: B1 VH with L100F
VL: B1 VL with M32L, M50D, N52S, M88Q
notes: as for B3
B11: Anti-IL-6 antibody, heavy chain S35H, G66D, L100G / light chain WT (antibody, IgG1, V domains shown)
VH: B1 VH with L100G
VL: B1 VL
notes: IgG1; variable domains only
B12: Anti-IL-6 antibody, heavy chain S35H, G66D, Q99A / light chain WT (antibody, IgG1, V domains shown)
VH: B1 VH with Q99A
VL: B1 VL
notes: IgG1; variable domains only
B13: Anti-IL-6 antibody, heavy chain S35H, G66D, L100D / light chain WT (antibody, IgG1, V domains shown)
VH: B1 VH with L100D
VL: B1 VL
notes: IgG1; variable domains only
B14: Anti-IL-6 antibody, heavy chain S35H, G66D, L100H / light chain WT (antibody, IgG1, V domains shown)
VH: B1 VH with L100H
VL: B1 VL
notes: IgG1; variable domains only
B15: Anti-IL-6 antibody, heavy chain S35H, G66D, L100H / light chain M32L, M50D, N52S, M88Q (antibody, IgG1, V domains shown)
VH: B1 VH with L100H
VL: B1 VL with M32L, M50D, N52S, M88Q
notes: as for B3
B16: Anti-IL-6 antibody, heavy chain S35H, G66D, L100E / light chain WT (antibody, IgG1, V domains shown)
VH: B1 VH with L100E
VL: B1 VL
notes: IgG1; variable domains only
B17: Anti-IL-6 antibody, heavy chain S35H, G66D, L100R / light chain WT (antibody, IgG1, V domains shown)
VH: B1 VH with L100R
VL: B1 VL
notes: IgG1; variable domains only
B18: Anti-IL-6 antibody, heavy chain S35H, G66D, L100Q / light chain WT (antibody, IgG1, V domains shown)
VH: B1 VH with L100Q
VL: B1 VL
notes: IgG1; variable domains only
B19: Anti-IL-6 antibody, heavy chain S35H, G66D, L100T / light chain WT (antibody, IgG1, V domains shown)
VH: B1 VH with L100T
VL: B1 VL
notes: IgG1; variable domains only
B20: Anti-IL-6 antibody, heavy chain S35H, G66D, L100I / light chain WT (antibody, IgG1, V domains shown)
VH: B1 VH with L100I
VL: B1 VL
notes: IgG1; variable domains only
B21: Anti-IL-6 antibody, heavy chain S35H, G66D, L100D / light chain M32L, M50D, N52S, M88Q (antibody, IgG1, V domains shown)
VH: B1 VH with L100D
VL: B1 VL with M32L, M50D, N52S, M88Q
notes: as for B3
B22: Anti-IL-6 antibody, heavy chain S35H, G66D, L100P / light chain M32L, M50D, N52S, M88Q (antibody, IgG1, V domains shown)
VH: B1 VH with L100P
VL: B1 VL with M32L, M50D, N52S, M88Q
notes: as for B3
B23: Anti-IL-6 antibody, heavy chain S35H, G66D, L100K / light chain WT (antibody, IgG1, V domains shown)
VH: B1 VH with L100K
VL: B1 VL
notes: IgG1; variable domains only
B24: Anti-IL-6 antibody, heavy chain S35H, G66D, L100E / light chain M32L, M50D, N52S, M88Q (antibody, IgG1, V domains shown)
VH: B1 VH with L100E
VL: B1 VL with M32L, M50D, N52S, M88Q
notes: as for B3
B25: Anti-IL-6 antibody, heavy chain S35H, G66D, L100F / light chain WT (antibody, IgG1, V domains shown)
VH: B1 VH with L100F
VL: B1 VL
notes: IgG1; variable domains only
B26: Anti-IL-6 antibody, heavy chain S35H, G66D, L100I / light chain M32L, M50D, N52S, M88Q (antibody, IgG1, V domains shown)
VH: B1 VH with L100I
VL: B1 VL with M32L, M50D, N52S, M88Q
notes: as for B3
B27: Anti-IL-6 antibody, heavy chain S35H, G66D, L100A / light chain WT (antibody, IgG1, V domains shown)
VH: B1 VH with L100A
VL: B1 VL
notes: IgG1; variable domains only
B28: Anti-IL-6 antibody, heavy chain G66D / light chain M32L, M50D, N52S, M88Q (antibody, IgG1, V domains shown)
VH: B1 VH with H35S
VL: B1 VL with M32L, M50D, N52S, M88Q
notes: as for B3

Biological target: human IL-6 (human, UniProt P05231 30-212)
Experiment: SPR Biacore, supernatant, Protein A capture, 37 C
Protocol: Those four positions were selected based on their tolerance for mutations as observed in bacterial and mammalian screens. […] These cultures were centrifuged and supernatants containing secreted antibodies were harvested and diluted in HBS-EP+ running buffer (1:20 ratio).
Antibodies were captured on a Protein A chip (GE) by injecting 1:20 cell supernatant dilutions at 10 μL/min for 60 seconds. […] The sensor chip was regenerated by a 60 seconds injection of 10 mM Glycine pH 1.7 at the flow rate of 50 μL/min. […] For this setup, 1 μg/mL of purified antibody was injected over a Protein A chip at 10 μL/min for 25 seconds. […] The sensor chip was regenerated by a 60 seconds injection of 10 mM Glycine pH 1.7 at flow rate of 50 μL/min. Data analysis for supernatant and purified samples were performed using BIAevaluation software (GE). All sensorgrams were double reference subtracted and fit using a 1:1 Langmuir binding model.

human IL-6, sequence (P05231 30-212 limits assumed): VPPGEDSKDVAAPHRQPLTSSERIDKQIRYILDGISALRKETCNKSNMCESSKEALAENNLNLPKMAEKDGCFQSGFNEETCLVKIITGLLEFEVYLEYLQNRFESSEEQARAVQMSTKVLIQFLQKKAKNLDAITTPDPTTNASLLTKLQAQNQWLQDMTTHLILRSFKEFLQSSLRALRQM

Kd [pM]	koff [s⁻¹]	kon [M⁻¹ s⁻¹]	Binder
374	0.000548	1.46e+06	B1
244	0.000579	2.37e+06	B2
934	0.000801	858000	B3
638	0.000642	1.01e+06	B4
3070	0.0045	1.47e+06	B5
296	0.00048	1.62e+06	B6
878	0.00116	1.32e+06	B7
196	0.000644	3.28e+06	B8
1980	0.00124	625000	B9
422	0.000614	1.46e+06	B10
300	0.00096	3.2e+06	B11
717	0.00132	1.85e+06	B12
447	0.000799	1.79e+06	B13
688	0.000498	723000	B14
830	0.00129	1.55e+06	B15
766	0.000869	1.13e+06	B16
1010	0.000957	951000	B17
180	0.00064	3.56e+06	B18
217	0.000724	3.34e+06	B19
692	0.000644	931000	B20
350	0.00202	5.77e+06	B21
4660	0.00354	759000	B22
180	0.00106	5.88e+06	B23
704	0.00145	2.05e+06	B24
244	0.000612	2.51e+06	B25
372	0.000712	1.91e+06	B26
184	0.000833	4.52e+06	B27
393	0.000654	1.66e+06	B28

Source: patent US20240209076A1 (KODIAK SCIENCES, published 2024)
